Test results reported in the nanobody polyreactivity screen of Harvey et al. (2022).

Assay: yeast display, Sf9 membrane polyspecificity reagent, FACS + sequencing; frameworks hold sequencing errors
In short: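 Sorting gates, low and high (top ~1%), were placed on anti-HA fluorescence to track expression and on streptavidin fluorescence to track reagent binding. A clone's polyreactivity label is taken from the gate it came out of. The reagent was 10% biotinylated, detergent-solubilized Sf9 membrane, applied for 1 hour at 4 °C to galactose-induced yeast display cells.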

Sequence | polyreactivity (PSR sort gate)
QVQLVESGGGLVQAGGSLRLSCAASGGIFNRNAMGWYRQAPGKERELVAAISSGGGSTYYADSVKGRFTISRDNAKNTVYLQMNSLKPEDTAVYYCARDSYHLYIQPFGYWGQGTQVTVSS | low polyreactivity
QVQLVESGGGLVQAGGSLRLSCAASGSTINFYAMGWYRQAPGKERELVAAIRVSSGSTYYADSVKGRFTISRDNAKNTVYLQMDSLKPEDTAVYYCAAYLKVRSPRDGYDYWGQGTQVTVSS | high polyreactivity
QVQLVESGGGLVQAGGSLRLSCAASGSIFTTNTMGWYRQAPGKERELVAAISSGGGTHYADSVKGRFTISRDNAKNTVYLQMNSLKPEDTAVYYCDARSYYYEWFGDVAMYYWGQGTQVTVSS | low polyreactivity
QVQLVESGGGLVQAGGSLRLSCPASGSILYSYAMGWYRQAHGKERELVAAITGDGASTNYADSVKGRFTISRDNAKNTVYFQMNSLKPEDTAVYYCNAGRESDDVYEGSQRIGQFDYWGQGTLVTVSS | low polyreactivity
QVQLVESGGGLVQAGGSLRLTCAASGSTFYVYAMGWYRQAPGKERELVAAIDDSGDRTYYADSVKGRFTISRDNAKNTVYLQMNSLKPEDTAVYYCAAEYDSWEYDYWGQGTQVTVSS | low polyreactivity
QDQLVESGGGLVQAGGSLRLSCAASGITFRYYAKGWYRPSPGKERELLAAISTSGGNTYYADSVKGRLTISRDNAKNTVYLQMKSLKPEDTAVYYCDVDGEYWYEYDGDYWGQGTQVNVSS | low polyreactivity
HVQLVDSGGGLVQAGGSLRLSCAASGRTFSHNAMGWYRQAPGKDRELVATITYGAGRTSYADSVKGRFTISRDNAKNTLYLQMNSLKPEDTAVYYCNADYFTYRGGEYRRYEYWGQGTQVTVST | high polyreactivity
QVQLVESGGGLVQAGGSLRLSCAASGIIFAGYAMGWYRQAPGKVRELVAAISGSGGRTYYADSVKGRLTISRDNAKNTVYLQMNSLKPEDTAVSFCAAEGRSEWGGDYYYGGQGTQVTVSS | low polyreactivity
QVQLVESGGGLVQAGGSLRLSCAASGRTFAFNAMGWYRQAPGKERELVATISWSGGSTYYADSVKGRFTISRDNAKNTVYLQMNSLKPEDTAVYYCAKVVRGSNDYDYWGQGTQVTVSS | high polyreactivity
QVQLVESGGGLVQAGGSLRISCAASGSTLQYYAMGWYRQAPGKERELVAAISWRGARTYYADSVKGRFTISRDNAKNTVYLQMNSLKPQDTAVYYCAAVYGSRGYAGNYYWGHGTQVTVSS | high polyreactivity
QVQLVESGGGLVQAGGSLRLSCAASGLIFGYYAKGWNTQAPGKERELVADISSGGSSNYADSVKGRFTISRDNAKNTVYLQMMSLKPEVTAVYYCAARYSRWFGFWGQGTQVTVSS | high polyreactivity
QVQLVESGGGLVQAGGSLRLSCAASGSIFYRYAMGWYRQAPGKESELVAAITQSTDSTYYADSVKGRFTISRDNAKNTVYLQMNSLKPEDTAVYYCAAYLVYYRPYAYGYWGQGTQVTVSS | low polyreactivity
QVQRVESGGGLVQAGGRLLLSCAASGSIFPPNAMGWYREAPGKERELVAAISGSGRTYYADSVKGRFTISRDNAKNTVYLQMNSLKPEDTAVYYCAARQQRRPTTRDFGFWGQGTQVTVSS | high polyreactivity
QVQLVESGGGLVQAGGSLRLSCAASGRTFVYYTRGWYRPAPGKERELVAAISWNGDDTYYADSVKGRFTISRDNAKNTVYLQMNSLKPEDTAVYYCAKESYTDYDTYYYWGQGTQVTVSS | low polyreactivity
QVQLVESGGGLVQAVGSLRLSCAASGRTFNLYAMGWYRQAPGKERELVAAITRRGGRTYYADSVKGRFTISRDNAKNTVYLQMNSLKPEDTAVYYCAARGYYGKFSGSGYWGQGTQVTVSS | high polyreactivity
QDQLVESGGGLVQEGGSLRLSCAASGRTFKHYVMGWYRQAPGKERELVATICGGGGTYYADSVKGRFTISRDNAKNSVYLQMISLKPEDTAVYYCAARYPRGSRTWSFDSNKQRDYWGQGTQVTVSS | low polyreactivity
QVQLVESGGGLVQAGGSLRLSCAASGSTSYNMGWYRQAPGKERELVAAISYRGGRTYYADSVKGRFTISRDNAKNTVYLQMNSLKPEDTAVYYCAKGIFDTFDSWGQGTQVTVSS | low polyreactivity
QVQHVESGGGLVQAGGSLRLSCDASGSIFRVYAMGWDRQAPGKERELVAAISRDGSTNYADSVKGRFTISRDNAKNTVYLQMNSLKPEDTAVYYCAAYRTYRGARMNYWGQGTQVTVSS | low polyreactivity
QVQLVESGGGLVQAGGSLRLSCTASGGIFRYYAMGWYRPAPGKERELVAGISRSGGSTHYADSVKGRFTISRDNAKNTVYLQMNSLKREDTAVYYCAADTYFTKYDYWGQGTQVTVSS | high polyreactivity
QVQLVESGGGLVQAGGSLRLSSAATGGIFYSNAMGWYRQAPGKERELVAAITRSGTSTYYADSVKGRFTISRDNAKNTVYLQMNSLKPEDTAVYYCAADYRYRRSRGHVSKLYYWGQGTQGTVSS | low polyreactivity
QVQLVESGGGLVQAGGSLRLSCADSGFTFYRYARGWYRQAPGKERELVADITSGGSTNYADSVKGRFTISRDNAKNTVYLQMNSLKPEDTAVYYCNADRWYGSVYRYGYWGQGTQVTVSS | high polyreactivity
QVQREESGGGLVQAGGSLRLSCAASGLTFTTYAMGWYRQAPGKERELVAAISRRGSRTYYADSVKGRFTISRDNAKNTVYLQMNSLKPEDTAVYYCNALTGSFKTYSFDYWGQGSQVTVSS | high polyreactivity

Sequence | polyreactivity (PSR sort gate)
QVQLVESGGGLVQAGGSLRLSCAASGYIFYYNTMGWYRQAPGKERELVAAIRSSGGSTYYADSVKGRFTISRDNAKNTVYLQMNSLKPEDTAVYYCAARPYRTKLIYGYWGQGTQVTVSS | high polyreactivity
QVQLVESGGGLVQAGGSLRLSSAASGSIFYYYSMGWYRQAPGKERELVAAITRSGGSTYYADSVKGLFTISRDNAKNTVYLQMNSQKPEDTAVYYCAKDAHAYRDLDYWGQGTQVTVSS | low polyreactivity
QGQLVESWGGLVQAGGSLRLICAASGFNLGRYAKGWYRQAPGKERELVAAISIGGRTNYADSVKERFTISRDNSKTSVYLHLKSLKPEVTAVYYSAADVRGSAYTTGDYWGQGTQVTVTS | low polyreactivity
QVQLVESGGGLVQAGGSLRLSCAASGSIFEGNARGWYRQAPGKERELVAAISTTGGITYYADAVKGRFTISRANAKNTVDLQKNSLKPEDTAVDYCAADPSQPRNDSSNYDYWGQGTQVTVSS | low polyreactivity
QVQLVESGGGLVQAGGSLRLSCAASGRIFGTNAMGWYRQAPGKERELVADITSGGSTNYADSVKGRFTISRDNAKNTVYLQMNSLTPEDTAVYYCAADVIGDLRWYRDEYWGQGTQVTVSS | low polyreactivity
QVHLVESGGGLVQAGGSLRLTCSASGFTFSTYAMGWYRPAPGKESEMVAVISWNGGSTYYADTVKGRFTISRYNAKNTVYLQMNSLKTEDTAVYYCAARGSFKKGYWGQGTQVTVSS | high polyreactivity
QVQLVESGGGLVQAGGSLRLSCADSGFTLNAMGWYRHAPGKERELVAAITTGGRTYYADSVKGRFTISRDNAKNTVYLQMNSLKPEDTAVYYCGAHTYYYPVGFNYWGQGTQVTVSS | low polyreactivity
QVQLVESGGGLVQAGGSLRLSCAASGFIFPLYAMGWYRKAPGKERELVAAITWRGDTTSYADSVKGRFTISRDNAKNTVYLQMNSLKPEDTAVYYCAAEFYDWWYYGGGEYWGQGTQVTVSS | high polyreactivity
QVQLVESGGGLVQAVGSLRLSCAACGRILWYYTMGWYRQAPAKERELVAAISGRGSSTYYADSVKGRFTISRDNAKNTVYLQMNSLKPEDTAVYYCNAALRTRRGDYDYWGQGTQVTVSS | high polyreactivity
QVQLVESGGGLVQAGGSLRLSCAASGRIFESYAMGWYRQAPGKERELVAAISRSGGSTYYADSVKGRFTISRDNAKNTVYLQMNSLKPEDTAVYYCNTYYYHHYDYWGQGTQVTVSS | high polyreactivity
QVQLVESGAGLVQAGGSLRLSCAASGFTFQYYAMGWYRQAPGKERELVATISSTDNTYYADSVKGRFTISRDNAKNTVYLQMNSLKPEDTAVYYCAARPTYRRRQGRGYWGQGTQVTVSS | high polyreactivity
QVQLVESGGGLVQAGGSLRLSCAASGRTFRRYAMGWYRQAPGKERELVAASSRGANTNYADSVKGRFTISRDNAKNTVYLQMNSLKPEDTSVYYGNAYGIDTGDYWGQGTKVTVSS | high polyreactivity
QVQLVESGGGLVQAGGSLRLSCAASGFTLSWYAMGWYRQAPGKERELVATISRGGITYYADSVKGRFTLSRDNANNTVYVQMNSLKPEDTAVYYCAADYRYGWYRYDYWGQGTQVTVSS | high polyreactivity
QVQLVESGGGLVQAGGSLRLSCAASGFTFAFYAMGWYRQAPGKERELVAAISWDGVTTYYADSVKGRFTISRDNAKNTVYLQMNSLKPEDTAVYYCAADYPDYAGSFWPSGMYYWGQGTQVTVSS | low polyreactivity
QVQLEESGGGLVQAGGSLRLSCAASGSTFSYYAKGWYRQAPGKERELVAVISRGGSTNYADSVKGRFTISRDNAKNTVYLQMNSLKPEDTAVYYCAADAIPDSVRYWEYDYWGQGTQVTVSS | low polyreactivity
QVQLVESGGGLVQAGGSLRLSCAASGRIFVYNVMGRYRQAPGKERELVAAISWGTGSTYADSVKGRFTISRDNAKNTVYLQMNSLKPEDTAVYYCAADSFIPPYDHWGQGTQVTVSS | low polyreactivity
QLQLVESGGGLVQAGGSLRLSCAASGRTFQLYAMGWYRQAPGKERELVAAISYSGGSTYYADSVKGRFTISRDNAKNSVYLQTNSLKPEDTAVYYCAARPRSTRPSYYYRSAGYYWGQGTQVTLSS | high polyreactivity
QVQHVESGGGLVQAGGSLRLSCAASGSTFYRYAMGWYRQAPGNERELVAAISASGGSTYYADSVKGRFTISRDNAKNTVYLQMNSLKPEDTAVYYCNRDRRYRNDYWGQGTQVTVSS | high polyreactivity
QVQLVESGGGLVQAGGSLRLSCAASGNTFDVYAMGWYRQAPGKEREFVARISGRVGSTYYADSVKGRFTISRDNAKYTVYLQMNSLKPEDTAVYYCNRRYQSRNMGYWGQGTQVTVSS | high polyreactivity
QVQLVESGGGLVQAGGSLRLSCAASGITSRPNAMGWYRQAPGKERELVAAISGSGGRTYYADSVKGRFTISRDNAKNTVYLQMNSLKPEDTAVYYCNAVGGGRWYEYWGLGTQVTVSS | high polyreactivity
QVQLVESGGGLLQAGGSLRLSCAASGRTFYKNAMGWYRHAPRKERELVAAITSGGSTNYADSVKGRFTISRDNAKNSVYLQMNSLKSEDTAVSACAAQLFPYYRSRYSYINNYDYSGQGTQVTVSS | high polyreactivity
